Patent publication US20200369755A1 (PROTHENA BIOSCIENCES, published 2020)

Biological target: T1, recombinant human 4R0N tau (human, UniProt P10636 2-758)
T1 construct: also called P10636-6
Assay: SPR, Biacore T200, antibody captured on anti-human Fc, tau as analyte, 1:1 fit
Procedure: Target binding analysis was performed using a Biacore T200 to compare the binding affinity of humanized 3D6 variants to recombinant human 4R0N tau. Anti-Human Fc antibody was immobilized on sensor chip CM3 via amine coupling, and humanized 3D6 variants were captured to equivalent levels. […] Data was blank subtracted to both an irrelevant sensor not containing antibody and 0 nM analyte concentration. Analysis was performed using a global 1:1 fit with Biacore Evaluation software.

T1 sequence (P10636 other isoform, or with tags, fused parts or gaps limits assumed): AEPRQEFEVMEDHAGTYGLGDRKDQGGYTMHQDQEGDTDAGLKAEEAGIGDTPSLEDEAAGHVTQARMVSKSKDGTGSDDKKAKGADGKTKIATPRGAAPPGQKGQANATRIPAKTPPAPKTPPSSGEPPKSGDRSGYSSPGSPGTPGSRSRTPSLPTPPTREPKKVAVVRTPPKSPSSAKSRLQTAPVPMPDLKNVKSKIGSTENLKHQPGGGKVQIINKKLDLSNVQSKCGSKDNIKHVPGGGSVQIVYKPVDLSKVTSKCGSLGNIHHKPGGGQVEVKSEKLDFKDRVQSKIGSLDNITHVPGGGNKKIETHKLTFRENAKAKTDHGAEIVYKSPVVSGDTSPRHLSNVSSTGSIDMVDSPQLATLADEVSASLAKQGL

| Kd [nM] | koff [s⁻¹] | kon [M⁻¹ s⁻¹] | Binder |
| --- | --- | --- | --- |
| 0.226 | 0.00102 | 4.51e+06 | h3D6VHvb8/L2-DIM4 (antibody, V domains shown, Humanized antibody with human Fc) VH: EVQLVQSGAEVVKPGATVKISCKASGFNIKDYYLHWVRQRPGQGLEWIGWIDPENGDTVYEPKFQGRATITADTSTDTAYLQLGSLTSEDTAVYFCSTLDFWGQGTLVTVSS VL: DVVMTQSPLSLPVTLGQPASISCKSSQSLLDSDGKTYLNWLQQRPGQSPRRLIYLVGKRDSGVPDRFSGSGSGTDFTLKISRVEAEDVGVYYCWQGTHFPYTFGGGTKLEIK |
| 0.281 | 0.000971 | 3.46e+06 | hu3D6VHv1bA11/L2-DIM7 (antibody, V domains shown, Humanized antibody with human Fc; also called hu3D6VHv1bA11 / hu3D6VLv2 L54G) VH: EVQLVQSGAEVVKPGATVKISCKASGFNIKDYYLHWVRQRPGQGLEWIGWIDPENGDTVYDPKFQGRATITADTSTDTAYLQLGSLTSEDTAVYFCSTLDFWGQGTLVTVSS VL: DVVMTQSPLSLPVTLGQPASISCKSSQSLLDSDGKTYLNWLLQRPGQSPRRLIYLVSKGDSGVPDRFSGSGSGTDFTLKISRVEAEDVGVYYCWQGTHFPYTFGGGTKLEIK |
| 1.49 | 0.00461 | 3.08e+06 | hu3D6VHv1bA11/L2-DIM6 (antibody, V domains shown, Humanized antibody with human Fc) VH: EVQLVQSGAEVVKPGATVKISCKASGFNIKDYYLHWVRQRPGQGLEWIGWIDPENGDTVYDPKFQGRATITADTSTDTAYLQLGSLTSEDTAVYFCSTLDFWGQGTLVTVSS VL: DVVMTQSPLSLPVTLGQPASISCKSSQSLLDSDGKTYLNWLQQRPGQSPRRLIYLVGKDDSGVPDRFSGSGSGTDFTLKISRVEAEDVGVYYCWQGTHFPYTFGGGTKLEIK |
| 0.199 | 0.000781 | 3.93e+06 | hu3D6VHv1bA11/L2-DIM3 (antibody, V domains shown, Humanized antibody with human Fc) VH: EVQLVQSGAEVVKPGATVKISCKASGFNIKDYYLHWVRQRPGQGLEWIGWIDPENGDTVYDPKFQGRATITADTSTDTAYLQLGSLTSEDTAVYFCSTLDFWGQGTLVTVSS VL: DVVMTQSPLSLPVTLGQPASISCKSSQSLLDSDGKTYLNWLQQRPGQSPRRLIYLVGKGDSGVPDRFSGSGSGTDFTLKISRVEAEDVGVYYCWQGTHFPYTFGGGTKLEIK |
| 0.708 | 0.00251 | 3.54e+06 | hu3D6VHv1bA11/L2-DIM22 (antibody, V domains shown, Humanized antibody with human Fc; also called hu3D6VHv1bA11 / hu3D6VLv2 L50G) VH: EVQLVQSGAEVVKPGATVKISCKASGFNIKDYYLHWVRQRPGQGLEWIGWIDPENGDTVYDPKFQGRATITADTSTDTAYLQLGSLTSEDTAVYFCSTLDFWGQGTLVTVSS VL: DVVMTQSPLSLPVTLGQPASISCKSSQSLLDSDGKTYLNWLLQRPGQSPRRLIYGVSKLDSGVPDRFSGSGSGTDFTLKISRVEAEDVGVYYCWQGTHFPYTFGGGTKLEIK |
| 1.53 |  |  | hu3D6VHv1bA11/L2-DIM14 (antibody, V domains shown, Humanized antibody with human Fc) VH: EVQLVQSGAEVVKPGATVKISCKASGFNIKDYYLHWVRQRPGQGLEWIGWIDPENGDTVYDPKFQGRATITADTSTDTAYLQLGSLTSEDTAVYFCSTLDFWGQGTLVTVSS VL: DVVMTQSPLSLPVTLGQPASISCKSSQSLLDSDGKTYLNWLQQRPGQSPRRLIYDVSKLDSGVPDRFSGSGSGTDFTLKISRVEAEDVGVYYCWQGTHFPYTFGGGTKLEIK |
| 1.79 | 5.88 |  | hu3D6VHv1bA11/L2-DIM19 (antibody, V domains shown, Humanized antibody with human Fc) VH: EVQLVQSGAEVVKPGATVKISCKASGFNIKDYYLHWVRQRPGQGLEWIGWIDPENGDTVYDPKFQGRATITADTSTDTAYLQLGSLTSEDTAVYFCSTLDFWGQGTLVTVSS VL: DVVMTQSPLSLPVTLGQPASISCKSSQSLLDSDGKTYLNWLQQRPGQSPRRLIYEVSKGDSGVPDRFSGSGSGTDFTLKISRVEAEDVGVYYCWQGTHFPYTFGGGTKLEIK |
| 0.183 | 0.000735 | 4.02e+06 | hu3D6VHv1bA11/L2-DIM5 (antibody, V domains shown, Humanized antibody with human Fc) VH: EVQLVQSGAEVVKPGATVKISCKASGFNIKDYYLHWVRQRPGQGLEWIGWIDPENGDTVYDPKFQGRATITADTSTDTAYLQLGSLTSEDTAVYFCSTLDFWGQGTLVTVSS VL: DVVMTQSPLSLPVTLGQPASISCKSSQSLLDSDGKTYLNWLQQRPGQSPRRLIYLVGKTDSGVPDRFSGSGSGTDFTLKISRVEAEDVGVYYCWQGTHFPYTFGGGTKLEIK |
| 0.16 | 0.00074 | 4.63e+06 | hu3D6VHv1bA11/L2-DIM9 (antibody, V domains shown, Humanized antibody with human Fc; also called hu3D6VHv1bA11 / hu3D6VLv2 S52G) VH: EVQLVQSGAEVVKPGATVKISCKASGFNIKDYYLHWVRQRPGQGLEWIGWIDPENGDTVYDPKFQGRATITADTSTDTAYLQLGSLTSEDTAVYFCSTLDFWGQGTLVTVSS VL: DVVMTQSPLSLPVTLGQPASISCKSSQSLLDSDGKTYLNWLLQRPGQSPRRLIYLVGKLDSGVPDRFSGSGSGTDFTLKISRVEAEDVGVYYCWQGTHFPYTFGGGTKLEIK |
| 36 | 0.00935 | 260000 | hu3D6VHv1bA11/L2-DIM20 (antibody, V domains shown, Humanized antibody with human Fc) VH: EVQLVQSGAEVVKPGATVKISCKASGFNIKDYYLHWVRQRPGQGLEWIGWIDPENGDTVYDPKFQGRATITADTSTDTAYLQLGSLTSEDTAVYFCSTLDFWGQGTLVTVSS VL: DVVMTQSPLSLPVTLGQPASISCKSSQSLLDSDGKTYLNWLQQRPGQSPRRLIYEVSKRDSGVPDRFSGSGSGTDFTLKISRVEAEDVGVYYCWQGTHFPYTFGGGTKLEIK |
| 1.03 |  |  | hu3D6VHv1bA11/L2-DIM17 (antibody, V domains shown, Humanized antibody with human Fc) VH: EVQLVQSGAEVVKPGATVKISCKASGFNIKDYYLHWVRQRPGQGLEWIGWIDPENGDTVYDPKFQGRATITADTSTDTAYLQLGSLTSEDTAVYFCSTLDFWGQGTLVTVSS VL: DVVMTQSPLSLPVTLGQPASISCKSSQSLLDSDGKTYLNWLQQRPGQSPRRLIYDVSKGDSGVPDRFSGSGSGTDFTLKISRVEAEDVGVYYCWQGTHFPYTFGGGTKLEIK |
| 2.51 | 0.00378 | 1.51e+06 | hu3D6VHv1bA11/L2-DIM18 (antibody, V domains shown, Humanized antibody with human Fc) VH: EVQLVQSGAEVVKPGATVKISCKASGFNIKDYYLHWVRQRPGQGLEWIGWIDPENGDTVYDPKFQGRATITADTSTDTAYLQLGSLTSEDTAVYFCSTLDFWGQGTLVTVSS VL: DVVMTQSPLSLPVTLGQPASISCKSSQSLLDSDGKTYLNWLQQRPGQSPRRLIYDVSKRDSGVPDRFSGSGSGTDFTLKISRVEAEDVGVYYCWQGTHFPYTFGGGTKLEIK |
| 0.427 | 0.0014 | 3.28e+06 | h3D6VHvb8/L2-DIM8 (antibody, V domains shown, Humanized antibody with human Fc; also called hu3D6VHv1bA11 D60E / hu3D6VLv2 L37Q) VH: EVQLVQSGAEVVKPGATVKISCKASGFNIKDYYLHWVRQRPGQGLEWIGWIDPENGDTVYEPKFQGRATITADTSTDTAYLQLGSLTSEDTAVYFCSTLDFWGQGTLVTVSS VL: DVVMTQSPLSLPVTLGQPASISCKSSQSLLDSDGKTYLNWLQQRPGQSPRRLIYLVSKLDSGVPDRFSGSGSGTDFTLKISRVEAEDVGVYYCWQGTHFPYTFGGGTKLEIK |
| 0.275 | 0.00119 | 4.31e+06 | h3D6VHvb8/L2-DIM7 (antibody, V domains shown, Humanized antibody with human Fc; also called hu3D6VHv1bA11 D60E / hu3D6VLv2 L54G) VH: EVQLVQSGAEVVKPGATVKISCKASGFNIKDYYLHWVRQRPGQGLEWIGWIDPENGDTVYEPKFQGRATITADTSTDTAYLQLGSLTSEDTAVYFCSTLDFWGQGTLVTVSS VL: DVVMTQSPLSLPVTLGQPASISCKSSQSLLDSDGKTYLNWLLQRPGQSPRRLIYLVSKGDSGVPDRFSGSGSGTDFTLKISRVEAEDVGVYYCWQGTHFPYTFGGGTKLEIK |
| 0.696 | 0.00149 | 2.15e+06 | hu3D6VHv1bA11/L2-DIM21 (antibody, V domains shown, Humanized antibody with human Fc; also called hu3D6VHv1bA11 / hu3D6VLv2 L54D) VH: EVQLVQSGAEVVKPGATVKISCKASGFNIKDYYLHWVRQRPGQGLEWIGWIDPENGDTVYDPKFQGRATITADTSTDTAYLQLGSLTSEDTAVYFCSTLDFWGQGTLVTVSS VL: DVVMTQSPLSLPVTLGQPASISCKSSQSLLDSDGKTYLNWLLQRPGQSPRRLIYLVSKDDSGVPDRFSGSGSGTDFTLKISRVEAEDVGVYYCWQGTHFPYTFGGGTKLEIK |
| 0.904 | 0.00285 | 3.15e+06 | hu3D6VHv1bA11/L2-DIM13 (antibody, V domains shown, Humanized antibody with human Fc) VH: EVQLVQSGAEVVKPGATVKISCKASGFNIKDYYLHWVRQRPGQGLEWIGWIDPENGDTVYDPKFQGRATITADTSTDTAYLQLGSLTSEDTAVYFCSTLDFWGQGTLVTVSS VL: DVVMTQSPLSLPVTLGQPASISCKSSQSLLDSDGKTYLNWLQQRPGQSPRRLIYGVSKLDSGVPDRFSGSGSGTDFTLKISRVEAEDVGVYYCWQGTHFPYTFGGGTKLEIK |
| 1.5 | 5.67 |  | h3D6VHvb8/L2-DIM6 (antibody, V domains shown, Humanized antibody with human Fc) VH: EVQLVQSGAEVVKPGATVKISCKASGFNIKDYYLHWVRQRPGQGLEWIGWIDPENGDTVYEPKFQGRATITADTSTDTAYLQLGSLTSEDTAVYFCSTLDFWGQGTLVTVSS VL: DVVMTQSPLSLPVTLGQPASISCKSSQSLLDSDGKTYLNWLQQRPGQSPRRLIYLVGKDDSGVPDRFSGSGSGTDFTLKISRVEAEDVGVYYCWQGTHFPYTFGGGTKLEIK |
| 0.485 | 0.00133 | 2.74e+06 | hu3D6VHv1bA11/L2-DIM12 (antibody, V domains shown, Humanized antibody with human Fc) VH: EVQLVQSGAEVVKPGATVKISCKASGFNIKDYYLHWVRQRPGQGLEWIGWIDPENGDTVYDPKFQGRATITADTSTDTAYLQLGSLTSEDTAVYFCSTLDFWGQGTLVTVSS VL: DVVMTQSPLSLPVTLGQPASISCKSSQSLLDSDGKTYLNWLQQRPGQSPRRLIYLVSKDDSGVPDRFSGSGSGTDFTLKISRVEAEDVGVYYCWQGTHFPYTFGGGTKLEIK |

Biological target: recombinant human tau (human, UniProt P10636 1-383)
Assay: SPR (Biacore T200): antibody captured on an anti-mouse chip, recombinant human tau 10-0.14 nM as analyte, global 1:1 fit
Procedure: Methods: SPR analysis was performed using a Biacore T200 to determine the binding kinetics of murine antibodies to recombinant human tau. To prepare a sensor surface, anti-mouse antibody (GE Life Sciences) was immobilized on sensor chip CM5 via amine coupling, and antibody was captured at a level to ensure maximum binding of 50 RU. Various concentrations of recombinant tau ranging from 10-0.14 nM were passed over the captured ligand at a flow rate of 50 μL/min in running buffer (HBS+0.05% P-20, 1 mg/mL BSA), for 180 sec association and 900 sec dissociation. Data were double-referenced to both an irrelevant sensor not containing antibody ligand, and 0 nM analyte concentration to account for the dissociation of ligand from the capture moiety. Data was then analyzed using a global 1:1 fit.

recombinant human tau, sequence (P10636 other isoform, or with tags, fused parts or gaps): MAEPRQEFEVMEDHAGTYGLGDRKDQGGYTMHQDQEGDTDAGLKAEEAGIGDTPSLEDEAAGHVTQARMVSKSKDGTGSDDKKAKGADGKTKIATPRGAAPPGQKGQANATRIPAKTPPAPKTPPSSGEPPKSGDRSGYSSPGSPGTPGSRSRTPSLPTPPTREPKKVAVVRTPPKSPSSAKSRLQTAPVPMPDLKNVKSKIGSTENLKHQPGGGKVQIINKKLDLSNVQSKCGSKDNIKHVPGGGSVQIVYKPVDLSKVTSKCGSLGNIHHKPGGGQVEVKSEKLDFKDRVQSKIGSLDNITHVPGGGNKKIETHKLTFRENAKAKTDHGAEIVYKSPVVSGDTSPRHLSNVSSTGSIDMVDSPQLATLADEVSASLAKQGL

| Kd [nM] | koff [s⁻¹] | kon [M⁻¹ s⁻¹] | Binder |
| --- | --- | --- | --- |
| 6.78 | 0.00254 | 375000 | 5G8 (antibody, V domains shown) VH: EVQLQQSGAELVRSGASVRLSCTASGFNIKDYYMHWVRQRPEQGLEWIGWIDPENGDTVYAPKFQGKATMTSDTSSNTAYLHLSSLTSEDTAVYYCSPLDFWGQGTTLTVSS VL: not shown |
